Biological target: HIV-1 envelope glycoprotein gp120 (UniProt P04578)
Assay: binding assay (method not named in legend)
Conditions: read off a plot; for other: relative affinity (hCD4-M = 1): parent: est. 0.63

Substance | ratio to parent (parent: 1) | other: relative affinity (hCD4-M = 1)
hCD4-M, human CD4 mimetic peptide (residues 22-64), N-terminal Cys form F43A; R58A; R59A | 0.24 | –
mCD4-M, murine CD4 mimetic peptide (residues 22-66) I23C; E65C | – | 4
mCD4-M, murine CD4 mimetic peptide (residues 22-66) V44A; K60A; K61A | – | 0.14

Source: PMC3270550
